Measurements published in patent publication US20240317871A1 (IMMUNOMIC THERAPEUTICS, published 2024).

T1: murine HVEM (murine, UniProt Q80WM9 39-206, limits assumed)
T1 construct: also called Mouse
T1 sequence (looked up): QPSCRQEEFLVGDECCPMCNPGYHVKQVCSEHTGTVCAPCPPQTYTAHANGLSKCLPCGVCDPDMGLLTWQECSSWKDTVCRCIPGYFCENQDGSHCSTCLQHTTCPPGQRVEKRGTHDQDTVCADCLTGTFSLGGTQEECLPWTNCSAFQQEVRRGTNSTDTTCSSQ

T2: cynomolgus monkey HVEM (cynomolgus monkey, UniProt A0A2K5W0R1 39-203)
T2 sequence: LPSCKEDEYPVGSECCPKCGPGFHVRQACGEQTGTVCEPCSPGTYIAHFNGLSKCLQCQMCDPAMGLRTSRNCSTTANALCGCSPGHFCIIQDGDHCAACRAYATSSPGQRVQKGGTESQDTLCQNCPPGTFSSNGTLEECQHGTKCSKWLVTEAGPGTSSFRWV

B1: Ab_057 (H5S19-5A7A) (antibody, V domains shown)
VH: DVKLVESGGGLVKPGGSLKLSCAASGFTFSSYTMSWVRQTPEKRLEWVATISSGGSYTYYPDSVKGRFTISRDNAKNTLYLQMSSLKSEDTAMYYCTRGDDYGFDYWGQGTTLTVSS
VL: DVLMTQTPLSLPVSLGDQASISCRSSQSIVHSNGNTYLEWYLQKPGQSPKLLIYKVSNRFSGVPDRFSGSGSGTDFTLKISRVEAEDLGVYYCFQGSHVPWTFGGGTKLEIK
notes: also called Ab_57
B2: Ab_056 (H5S19-11A9B) (antibody, V domains shown)
VH: DVQLQESGPGLVNPSQSLSLTCTVTGYSITSDYAWNWIRQFPGNKLEWMGYISYSGNTGYNPSLKSRISITRDTSKNQFFLQLNSVTSEDTATYYCARWGLRIDYWGQGTTLTVSS
VL: DIKMTQSPSSMYASLGESVTITCKASQDINSYLSWFQQKPGKSPKTLIYRANRLVDGVPSRFSGSGSGQDYSLTISSLEFEDMGIYYCLQYDEFPFTFGSGTKLEMK
notes: also called Ab_56
B3: Ab_018 (H5S14-21A19A) (antibody, V domains shown)
VH: QVQLQQPGSELVRPGASVKLSCKASGYTFTSYWMHWVKQRPGQGLEWIGNIYPGSGSTNYDEKFKSKATLTVDTSSSTAYMQLSSLTSEDSAVYYCTIYDGYYWGQGTLVTVSA
VL: DIQMTQSPASLSVSVGETVTITCRASENIYSNLAWYQQKQGKSPQLLVYAATNLADGVPSRFSGSGSGTQYSLKINSLQSEDFGSYYCQHFWGTPRTFGGGTKLEIK
notes: the values of that row are written under this molecule; also called Ab_18; Ab_018 and Ab_019
B4: Ab_084 (H5S20-51A40A) (antibody, V domains shown)
VH: QVQLKQSGPGLVQPSQSLSITCTVSGFSLTSYGVHWVRQSPGKGLEWLGVIWRGGSTDYNAAFMSRLSITKDNSKSQVFFKMNSLQADDTAIYYCAKNRGYGEGYYAMDYWGQGTSVTVSS
VL: DIVMTQSQKFMSTSVGDRVSVTCKASQNVGTNVAWYQQKPGQSPKALIYSASYRYSGVPDRFTGSGSGTDFTLTISNVQSEDLAEYFCQQYNSYPLTFGAGTKLELK
notes: also called Ab_84
B5: Ab_049 (H5S19-25A24A) (antibody, V domains shown)
VH: QVQLQQSGAELMKPGASVKISCKATGYTFSSYWIEWVKQRPGHGLEWIGEILPGSGSTNYNEKFKGKATFTADTSSNTAYMQLSSLTSEDSAVYYCARYPRWGKIDYWGQGTTLTVSS
VL: DIVMTQAAFSNPVTLGTSASISCRSSKSLLHSNGITYLYWYLQKPGQSPQLLIYQMSNLASGVPDRFSSSGSGTDFTLRISRVEAEDVGVYYCAQNLELPYTFGGGTKLEIK
notes: also called Ab_49
B6: Ab_003 (H5S14-3A3A) (antibody, V domains shown)
VH: QIQLVQSGPELKKPGETVKISCKASGYTFTNYGVNWVKQAPGKDLKWMGWINTYTGEPTYADDFKGRFAFSLETSASTAYLQINNLKNEDMATYFCTSRSWVLWGQGTLVTVSA
VL: QIVLTQSPAIMSASLGEEITLTCSASSSVSYMQWYQQKSGTSPKLLIYSTSNLASGVPSRFSGSGSGTFYSLTISSVEAEDAADYYCHQWSSYPTFGGGTELEI
notes: also called Ab_3
B7: Ab_086 (H5S20-56A25A) (antibody, V domains shown)
VH: EVKLVESGGGLVKPGGSLKLSCAASGFTFSSYGMSWVRQTPEKRLEWVATISGGGSYTFYPDSVKGRFTISRDNAKNNLYLQVSSLRSEDTALYYCIYDGSYWGQGTLVTVSA
VL: not shown
notes: also called Ab_86

molecular target: T1, murine HVEM; assay: ELISA
Note: test concentration or dose not given here.

ELISA signal | Binder
0.045 | B1
0.043 | B2
0.043 | B3
0.043 | B4
0.044 | B5
0.051 | B6
0.044 | B7

molecular target: T2, cynomolgus monkey HVEM; assay: ELISA

ELISA signal | Binder
1.06 | B1
0.06 | B2
0.059 | B3
0.061 | B4
0.065 | B5
2.29 | B6
0.065 | B7
